Measured values from article doi:10.1101/2020.08.09.229716.

Target: Gβγ subunits (fluorescent-tagged, of the FRET Gαi activity reporter) (UniProt P62873)
Assay: FRET or BRET

Substance	reduction in FRET signal compared to WT and 3YF [%]	loss of FRET signal after EGF stimulation [%]
Gαi1-Y154H activity reporter (from UniProt P63096 1-354) (natural protein)	80	
Gαi1-WT activity reporter (fluorescent-tagged Gαi) (from UniProt P63096 1-354) (natural protein)		50
